Measurements taken from patent US20220227830A1, “QD DOSING OF GIP RECEPTOR AGONIST PEPTIDE COMPOUNDS AND USES THEREOF” (Takeda Pharmaceutical Company Limited, priority 2020, published 2022).
Starred links: 1 amine or outer side, 2 acyl side, 3 side chain; linkers in the order of their positions; H or OH if unused. Non-standard residues stand in square brackets, D forms with d. Groups on a side chain read outwards from the residue. No end group written: not given here. *: point of attachment. C16 diacid = O=C(O)CCCCCCCCCCCCCCC(=O)*; C15 diacid = O=C(O)CCCCCCCCCCCCCC(=O)*; γGlu = O=C(O)[C@H](CCC(=O)[*:2])N[*:1]; NMeY = CN[C@@H](Cc1ccc(O)cc1)C(=O)O; AEEA = NCCOCCOCC(=O)O; Aib = CC(C)(N)C(=O)O

Tests used:
[1] = target: T1, full-length human GIPR with an N-terminal FLAG tag (human, UniProt P48546 22-466); test: cell-based or functional assay
T1 sequence (looked up): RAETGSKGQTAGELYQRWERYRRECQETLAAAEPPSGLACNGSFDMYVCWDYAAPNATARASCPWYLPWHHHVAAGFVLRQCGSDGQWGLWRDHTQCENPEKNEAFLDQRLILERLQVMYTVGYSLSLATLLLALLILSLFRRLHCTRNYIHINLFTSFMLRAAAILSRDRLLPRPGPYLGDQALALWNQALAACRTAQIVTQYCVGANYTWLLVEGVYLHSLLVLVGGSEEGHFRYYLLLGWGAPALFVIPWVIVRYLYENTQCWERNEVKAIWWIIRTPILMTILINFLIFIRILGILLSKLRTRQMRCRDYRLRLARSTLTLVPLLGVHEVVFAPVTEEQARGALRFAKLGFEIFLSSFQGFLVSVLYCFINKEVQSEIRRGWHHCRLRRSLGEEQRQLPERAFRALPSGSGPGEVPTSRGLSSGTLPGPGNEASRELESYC

[2] = target: full-length human GLP-1R with an N-terminal FLAG tag (human, UniProt P43220 24-463); test: cell-based or functional assay

B1: Compound 88 (peptide)
peptide: [NMeY][Aib]EGTFISDYSIALDR[Aib]AQ[Aib]NFVNWLLAK([AEEA-AEEA-γGlu-γGlu-C15 diacid])RPSSGAPPPS-NH2
modifications: N-terminus assumed
SMILES: CC[C@H](C)[C@H](NC(=O)[C@H](CO)NC(=O)[C@H](Cc1ccc(O)cc1)NC(=O)[C@H](CC(=O)O)NC(=O)[C@H](CO)NC(=O)[C@@H](NC(=O)[C@H](Cc1ccccc1)NC(=O)[C@@H](NC(=O)CNC(=O)[C@H](CCC(=O)O)NC(=O)C(C)(C)NC(=O)[C@H](Cc1ccc(O)cc1)NC)[C@@H](C)O)[C@@H](C)CC)C(=O)N[C@@H](C)C(=O)N[C@@H](CC(C)C)C(=O)N[C@@H](CC(=O)O)C(=O)N[C@@H](CCCNC(=N)N)C(=O)NC(C)(C)C(=O)N[C@@H](C)C(=O)N[C@@H](CCC(N)=O)C(=O)NC(C)(C)C(=O)N[C@@H](CC(N)=O)C(=O)N[C@@H](Cc1ccccc1)C(=O)N[C@H](C(=O)N[C@@H](CC(N)=O)C(=O)N[C@@H](Cc1c[nH]c2ccccc12)C(=O)N[C@@H](CC(C)C)C(=O)N[C@@H](CC(C)C)C(=O)N[C@@H](C)C(=O)N[C@@H](CCCCNC(=O)COCCOCCNC(=O)COCCOCCNC(=O)CC[C@H](NC(=O)CC[C@H](NC(=O)CCCCCCCCCCCCCC(=O)O)C(=O)O)C(=O)O)C(=O)N[C@@H](CCCNC(=N)N)C(=O)N1CCC[C@H]1C(=O)N[C@@H](CO)C(=O)N[C@@H](CO)C(=O)NCC(=O)N[C@@H](C)C(=O)N1CCC[C@H]1C(=O)N1CCC[C@H]1C(=O)N1CCC[C@H]1C(=O)N[C@@H](CO)C(N)=O)C(C)C
[1]
  Human GIPR cAMP, HEK293T EC50: 0.0006 nM
[2]
  Human GLP1R cAMP HEK293T EC50: 166 nM

## [NMeY][Aib]EGTFISDYSI[Aib]K([GGEEE-C15 diacid])DR[Aib]AQ[Aib]NFVNWLLAQRPSSGAPPPS-NH2 [Compound 95]
[1]
  Human GIPR cAMP, HEK293T EC50: 0.0002 nM
[2]
  Human GLP1R cAMP HEK293T EC50: 537 nM

## [NMeY][Aib]EGTFISDYSIALDR[Aib]AQ[Aib]KFVNWLLAQS-NH2 (not fully specified (residue 21)) [Compound 85]
[1]
  Human GIPR cAMP, HEK293T EC50: 0.0009 nM
[2]
  Human GLP1R cAMP HEK293T EC50: 63.1 nM

## [NMeY][Aib]EGTFISDYSIAK([G5-γGlu-γGlu-C15 diacid])DR[Aib]AQ[Aib]NFVNWLLAQSPSSGAPPPS-NH2 [Compound 81]
[1]
  Human GIPR cAMP, HEK293T EC50: 0.0002 nM
[2]
  Human GLP1R cAMP HEK293T EC50: 1000 nM

B2: Compound 94 (peptide)
peptide: [NMeY][Aib]EGTFISDYSI[Aib]K([AEEA-γGlu-γGlu-C15 diacid])DR[Aib]AQ[Aib]NFVNWLLAQRPSSGAPPPS-NH2
modifications: N-terminus assumed
SMILES: CC[C@H](C)[C@H](NC(=O)[C@H](Cc1ccccc1)NC(=O)[C@@H](NC(=O)CNC(=O)[C@H](CCC(=O)O)NC(=O)C(C)(C)NC(=O)[C@H](Cc1ccc(O)cc1)NC)[C@@H](C)O)C(=O)N[C@@H](CO)C(=O)N[C@@H](CC(=O)O)C(=O)N[C@@H](Cc1ccc(O)cc1)C(=O)N[C@@H](CO)C(=O)N[C@H](C(=O)NC(C)(C)C(=O)N[C@@H](CCCCNC(=O)COCCOCCNC(=O)CC[C@H](NC(=O)CC[C@H](NC(=O)CCCCCCCCCCCCCC(=O)O)C(=O)O)C(=O)O)C(=O)N[C@@H](CC(=O)O)C(=O)N[C@@H](CCCNC(=N)N)C(=O)NC(C)(C)C(=O)N[C@@H](C)C(=O)N[C@@H](CCC(N)=O)C(=O)NC(C)(C)C(=O)N[C@@H](CC(N)=O)C(=O)N[C@@H](Cc1ccccc1)C(=O)N[C@H](C(=O)N[C@@H](CC(N)=O)C(=O)N[C@@H](Cc1c[nH]c2ccccc12)C(=O)N[C@@H](CC(C)C)C(=O)N[C@@H](CC(C)C)C(=O)N[C@@H](C)C(=O)N[C@@H](CCC(N)=O)C(=O)N[C@@H](CCCNC(=N)N)C(=O)N1CCC[C@H]1C(=O)N[C@@H](CO)C(=O)N[C@@H](CO)C(=O)NCC(=O)N[C@@H](C)C(=O)N1CCC[C@H]1C(=O)N1CCC[C@H]1C(=O)N1CCC[C@H]1C(=O)N[C@@H](CO)C(N)=O)C(C)C)[C@@H](C)CC
[1]
  Human GIPR cAMP, HEK293T EC50: 0.0006 nM
[2]
  Human GLP1R cAMP HEK293T EC50: 501 nM

B3: Compound 92 (peptide)
peptide: [NMeY][Aib]EGTFISDYSIALDR[Aib]AQ[Aib]K([AEEA-AEEA-γGlu-C15 diacid])FVNWLLAQSPSSGAPPPS-NH2
modifications: N-terminus assumed
SMILES: CC[C@H](C)[C@H](NC(=O)[C@H](CO)NC(=O)[C@H](Cc1ccc(O)cc1)NC(=O)[C@H](CC(=O)O)NC(=O)[C@H](CO)NC(=O)[C@@H](NC(=O)[C@H](Cc1ccccc1)NC(=O)[C@@H](NC(=O)CNC(=O)[C@H](CCC(=O)O)NC(=O)C(C)(C)NC(=O)[C@H](Cc1ccc(O)cc1)NC)[C@@H](C)O)[C@@H](C)CC)C(=O)N[C@@H](C)C(=O)N[C@@H](CC(C)C)C(=O)N[C@@H](CC(=O)O)C(=O)N[C@@H](CCCNC(=N)N)C(=O)NC(C)(C)C(=O)N[C@@H](C)C(=O)N[C@@H](CCC(N)=O)C(=O)NC(C)(C)C(=O)N[C@@H](CCCCNC(=O)COCCOCCNC(=O)COCCOCCNC(=O)CC[C@H](NC(=O)CCCCCCCCCCCCCC(=O)O)C(=O)O)C(=O)N[C@@H](Cc1ccccc1)C(=O)N[C@H](C(=O)N[C@@H](CC(N)=O)C(=O)N[C@@H](Cc1c[nH]c2ccccc12)C(=O)N[C@@H](CC(C)C)C(=O)N[C@@H](CC(C)C)C(=O)N[C@@H](C)C(=O)N[C@@H](CCC(N)=O)C(=O)N[C@@H](CO)C(=O)N1CCC[C@H]1C(=O)N[C@@H](CO)C(=O)N[C@@H](CO)C(=O)NCC(=O)N[C@@H](C)C(=O)N1CCC[C@H]1C(=O)N1CCC[C@H]1C(=O)N1CCC[C@H]1C(=O)N[C@@H](CO)C(N)=O)C(C)C
[1]
  Human GIPR cAMP, HEK293T EC50: 0.0013 nM
[2]
  Human GLP1R cAMP HEK293T EC50: 74.1 nM

B4: Compound 93 (peptide)
peptide: [NMeY][Aib]EGTFISDYSIALDR[Aib]AQ[Aib]K([AEEA-AEEA-γGlu-γGlu-C15 diacid])FVNWLLAQSPSSGAPPPS-NH2
modifications: N-terminus assumed
SMILES: CC[C@H](C)[C@H](NC(=O)[C@H](CO)NC(=O)[C@H](Cc1ccc(O)cc1)NC(=O)[C@H](CC(=O)O)NC(=O)[C@H](CO)NC(=O)[C@@H](NC(=O)[C@H](Cc1ccccc1)NC(=O)[C@@H](NC(=O)CNC(=O)[C@H](CCC(=O)O)NC(=O)C(C)(C)NC(=O)[C@H](Cc1ccc(O)cc1)NC)[C@@H](C)O)[C@@H](C)CC)C(=O)N[C@@H](C)C(=O)N[C@@H](CC(C)C)C(=O)N[C@@H](CC(=O)O)C(=O)N[C@@H](CCCNC(=N)N)C(=O)NC(C)(C)C(=O)N[C@@H](C)C(=O)N[C@@H](CCC(N)=O)C(=O)NC(C)(C)C(=O)N[C@@H](CCCCNC(=O)COCCOCCNC(=O)COCCOCCNC(=O)CC[C@H](NC(=O)CC[C@H](NC(=O)CCCCCCCCCCCCCC(=O)O)C(=O)O)C(=O)O)C(=O)N[C@@H](Cc1ccccc1)C(=O)N[C@H](C(=O)N[C@@H](CC(N)=O)C(=O)N[C@@H](Cc1c[nH]c2ccccc12)C(=O)N[C@@H](CC(C)C)C(=O)N[C@@H](CC(C)C)C(=O)N[C@@H](C)C(=O)N[C@@H](CCC(N)=O)C(=O)N[C@@H](CO)C(=O)N1CCC[C@H]1C(=O)N[C@@H](CO)C(=O)N[C@@H](CO)C(=O)NCC(=O)N[C@@H](C)C(=O)N1CCC[C@H]1C(=O)N1CCC[C@H]1C(=O)N1CCC[C@H]1C(=O)N[C@@H](CO)C(N)=O)C(C)C
[1]
  Human GIPR cAMP, HEK293T EC50: 0.0002 nM
[2]
  Human GLP1R cAMP HEK293T EC50: 490 nM

## [NMeY][Aib]EGTFISDYSIALDRIK([AEEA-AEEA-γGlu-C16 diacid])Q[Aib]NFVNWLLAQK [Compound 8]
[1]
  Human GIPR cAMP, HEK293T EC50: 0.0001 nM
[2]
  Human GLP1R cAMP HEK293T EC50: 100 nM

B5: Compound 91 (peptide)
peptide: [NMeY][Aib]EGTFISDYSIALDR[Aib]AQ[Aib]NFVNWLLAQK([AEEA-AEEA-γGlu-γGlu-C15 diacid])-NH2
modifications: N-terminus assumed
SMILES: CC[C@H](C)[C@H](NC(=O)[C@H](CO)NC(=O)[C@H](Cc1ccc(O)cc1)NC(=O)[C@H](CC(=O)O)NC(=O)[C@H](CO)NC(=O)[C@@H](NC(=O)[C@H](Cc1ccccc1)NC(=O)[C@@H](NC(=O)CNC(=O)[C@H](CCC(=O)O)NC(=O)C(C)(C)NC(=O)[C@H](Cc1ccc(O)cc1)NC)[C@@H](C)O)[C@@H](C)CC)C(=O)N[C@@H](C)C(=O)N[C@@H](CC(C)C)C(=O)N[C@@H](CC(=O)O)C(=O)N[C@@H](CCCNC(=N)N)C(=O)NC(C)(C)C(=O)N[C@@H](C)C(=O)N[C@@H](CCC(N)=O)C(=O)NC(C)(C)C(=O)N[C@@H](CC(N)=O)C(=O)N[C@@H](Cc1ccccc1)C(=O)N[C@H](C(=O)N[C@@H](CC(N)=O)C(=O)N[C@@H](Cc1c[nH]c2ccccc12)C(=O)N[C@@H](CC(C)C)C(=O)N[C@@H](CC(C)C)C(=O)N[C@@H](C)C(=O)N[C@@H](CCC(N)=O)C(=O)N[C@@H](CCCCNC(=O)COCCOCCNC(=O)COCCOCCNC(=O)CC[C@H](NC(=O)CC[C@H](NC(=O)CCCCCCCCCCCCCC(=O)O)C(=O)O)C(=O)O)C(N)=O)C(C)C
[1]
  Human GIPR cAMP, HEK293T EC50: 0.0008 nM
[2]
  Human GLP1R cAMP HEK293T EC50: 126 nM

## [NMeY][Aib]EGTFISDYSIAK([G5-γGlu-C15 diacid])DR[Aib]AQ[Aib]NFVNWLLAQSPSSGAPPPS-NH2 [Compound 82]
[1]
  Human GIPR cAMP, HEK293T EC50: 0.0003 nM
[2]
  Human GLP1R cAMP HEK293T EC50: 295 nM

## [NMeY][Aib]EGTFISDYSIAK([G5-γGlu-C15 diacid])DR[Aib]AQ[Aib]DFVNWLLAQRPSSGAPPPS-NH2 [Compound 80]
[1]
  Human GIPR cAMP, HEK293T EC50: 0.0004 nM
[2]
  Human GLP1R cAMP HEK293T EC50: 468 nM
